# Assay results reported in patent publication CN1886424A (dated 2006).
# Experiments:
# [1] = target: T1, 纯化的/生物素化的全长人IGF-I受体 (purified, biotinylated full-length human IGF-I receptor) (human, UniProt P08069 31-1367, biotinylated with PEO-maleimide-biotin (Kd and competition ELISAs); unmodified when coated directly); assay: ELISA titration of the Fab on human IGF-I receptor
# T1 construct: mature; also called 生物素化的IGF-I受体; 纯化的人IGF-I受体
# [2] = target: T1, 纯化的/生物素化的全长人IGF-I受体 (purified, …); assay: ELISA titration on biotinylated human IGF-I receptor captured on streptavidin, one-site non-linear regression
# [3] = target: 人肿瘤细胞上的人IGF-I受体 (endogenous human IGF-I receptor of human tumour cells: MCF-7, NCI-H838, SaOS-2 and others) (human) (UniProt P08069); assay: cell-based or functional assay
# [4] = target: 过量表达于3T3样细胞上的人Y1251F IGF-I受体 (human IGF-I receptor with Y1251F mutation on 3T3-like cells) (human) (UniProt P08069); assay: cell ELISA on dried cells overexpressing human Y1251F IGF-I receptor, 12 min colour development
# [5] = target: 人肿瘤细胞上的人IGF-I受体 (endogenous human IGF-I receptor of human tumour cells: MCF-7, NCI-H838, SaOS-2 and others) (human) (UniProt P08069); assay: displacement of biotin-IGF-I from MCF-7 cells at 4℃, 2 h; capture ELISA
# [6] = target: 人肿瘤细胞上的人IGF-I受体 (endogenous human IGF-I receptor of human tumour cells: MCF-7, NCI-H838, SaOS-2 and others) (human) (UniProt P08069); assay: displacement of biotin-IGF-I from MCF-7 cells at 37℃, 30 min, 10-100 μg/mL antibody; capture ELISA
# T1 sequence (P08069 31-1367 limits assumed): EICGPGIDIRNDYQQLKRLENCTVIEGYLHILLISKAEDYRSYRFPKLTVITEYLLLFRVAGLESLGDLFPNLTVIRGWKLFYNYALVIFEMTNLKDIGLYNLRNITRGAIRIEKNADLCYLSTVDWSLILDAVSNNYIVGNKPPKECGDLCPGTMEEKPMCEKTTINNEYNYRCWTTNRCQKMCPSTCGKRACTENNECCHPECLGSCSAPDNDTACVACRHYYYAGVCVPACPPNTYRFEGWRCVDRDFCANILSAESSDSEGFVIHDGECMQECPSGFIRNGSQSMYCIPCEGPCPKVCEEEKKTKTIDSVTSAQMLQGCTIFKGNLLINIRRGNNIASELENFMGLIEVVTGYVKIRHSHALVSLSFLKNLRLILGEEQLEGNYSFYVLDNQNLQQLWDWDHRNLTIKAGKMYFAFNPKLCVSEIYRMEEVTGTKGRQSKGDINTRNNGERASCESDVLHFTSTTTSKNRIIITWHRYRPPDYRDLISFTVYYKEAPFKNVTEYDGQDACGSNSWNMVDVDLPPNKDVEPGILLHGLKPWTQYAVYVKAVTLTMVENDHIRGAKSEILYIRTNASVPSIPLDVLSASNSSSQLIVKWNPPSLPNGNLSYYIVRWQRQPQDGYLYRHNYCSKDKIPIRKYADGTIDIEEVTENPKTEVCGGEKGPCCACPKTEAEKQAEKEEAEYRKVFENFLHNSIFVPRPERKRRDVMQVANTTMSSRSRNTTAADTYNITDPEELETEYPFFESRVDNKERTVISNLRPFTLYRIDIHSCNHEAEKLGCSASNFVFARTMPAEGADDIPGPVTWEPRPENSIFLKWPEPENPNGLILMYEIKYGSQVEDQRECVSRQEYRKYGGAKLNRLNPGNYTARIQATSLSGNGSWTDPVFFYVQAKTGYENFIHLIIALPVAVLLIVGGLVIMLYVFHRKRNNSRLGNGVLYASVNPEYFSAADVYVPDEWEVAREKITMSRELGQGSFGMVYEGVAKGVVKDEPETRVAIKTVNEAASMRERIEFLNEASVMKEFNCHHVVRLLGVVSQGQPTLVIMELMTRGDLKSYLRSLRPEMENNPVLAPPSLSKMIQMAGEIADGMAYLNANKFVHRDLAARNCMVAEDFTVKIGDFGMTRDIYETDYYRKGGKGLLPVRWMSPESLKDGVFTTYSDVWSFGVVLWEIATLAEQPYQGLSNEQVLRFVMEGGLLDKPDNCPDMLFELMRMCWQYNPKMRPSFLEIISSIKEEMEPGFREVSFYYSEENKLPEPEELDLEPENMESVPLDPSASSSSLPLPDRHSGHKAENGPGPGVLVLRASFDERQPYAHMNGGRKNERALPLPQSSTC
Kd [1] [nM],Kd [2] [nM],"MCF-7 cell cycle, percent of cells in G0/G1 phase with IGF-I (20 ng/mL) plus EM164 (20 μg/mL); 50% without EM164 [3] [%]","MCF-7 cell cycle, percent of cells in S phase with IGF-I (20 ng/mL) plus EM164 (20 μg/mL); 41% without EM164 [3] [%]","percent inhibition of IGF-I-stimulated growth in serum-free medium, MTT assay, A 375 (melanoma) [3] [%]","percent inhibition of IGF-I-stimulated growth in serum-free medium, MTT assay, A431 (epidermoid) [3] [%]","percent inhibition of IGF-I-stimulated growth in serum-free medium, MTT assay, Calu-6 [3] [%]","percent inhibition of IGF-I-stimulated growth in serum-free medium, MTT assay, Colo 205 (colon) [3] [%]","percent inhibition of IGF-I-stimulated growth in serum-free medium, MTT assay, HT-29 [3] [%]","percent inhibition of IGF-I-stimulated growth in serum-free medium, MTT assay, SK-Mel-37 [3] [%]","percent inhibition of IGF-I-stimulated growth in serum-free medium, MTT assay, SK-N-SH (neuroblastoma) [3] [%]",absorbance (cell ELISA signal) (absorbance units) [4],percent displacement of pre-bound biotinylated IGF-I [5] [%],percent displacement of pre-bound biotinylated IGF-I [6] [%],Binder
0.3,,,,,,,,,,,,,,"EM164抗体的Fab片段 (Fab fragment of EM164, papain digest) (Fab, V domains shown, also called EM164 Fab) VH: QVQLQQSGAELVKPGASVKLSCKASGYTFTSYWMHWVKQRPGQGLEWIGEINPSNGRTNYNEKFKRKATLTVDKSSSTAYMQLSSLTSEDSAVYYFARGRPDYYGSSKWYFDVWGAGTTVTVSS VL: DVLMTQTPLSLPVSLGDQASISCRSSQSIVHSNVNTYLEWYLQKPGQSPKLLIYKVSNRFSGVPDRFSGSGSGTDFTLRISRVEAEDLGIYYCFQGSHVPPTFGGGTKLEIKR"
,0.1,77,9,90,85,85,50,60,85,85,0.88,50,90,"鼠抗IGF-I受体抗体EM164 (murine anti-IGF-I receptor antibody EM164) (antibody, V domains shown, Purified from hybridoma; also called EM164抗体; muEM164) VH: QVQLQQSGAELVKPGASVKLSCKASGYTFTSYWMHWVKQRPGQGLEWIGEINPSNGRTNYNEKFKRKATLTVDKSSSTAYMQLSSLTSEDSAVYYFARGRPDYYGSSKWYFDVWGAGTTVTVSS VL: DVLMTQTPLSLPVSLGDQASISCRSSQSIVHSNVNTYLEWYLQKPGQSPKLLIYKVSNRFSGVPDRFSGSGSGTDFTLRISRVEAEDLGIYYCFQGSHVPPTFGGGTKLEIKR"
